Laboratory results published in patent publication US20250326867A1, “De novo designed chlorophyll special pair proteins” (University of Washington, priority 2024, published 2025).

B1: SP1: de novo designed chlorophyll special pair protein, C2 homodimer (protein)
chain: GGDSRELIARYQILLAELAAIRADIAAERTGDPYVRKLARELKRLAQEAAEEVKRDPSSSDVNMALLLILLMIELAVRALEAAERTGDPEVRELAAELVWLAVEAAEEVQRNPSSSDVWLALHLIMLAIWAAVAALEAAERTGDPEVRELARELVRLAVEAAEEVQRNPSSKEVYMALLLILIAILEAVLSLLRAERSGDPEKREKARERVREAVERAEEVQR
modifications: homodimer; VARIANT 1..2 optionally absent
notes: de novo designed chlorophyll special pair protein, C2 homodimer
B2: JB (designed binder)
chain: SGSTEELKKVLEDVRELAERAKESTDPEEALIIAILVIIRALAAVALDPSEEASTAVKIAIKIAEEVAKRVSDSELSASIALLIANLALVAAKAAGDEELSKLALRLAKLAAELAKDALRIAEERGNAWQAAIAVGVVVMVATILLALAKQLGSEEALKEALEVAEEAARLAKRQLELAERVGDPIVALAAVGHVFMVAMLLAQIARESGSEEAKERAKRVAEEAEELAERVYELMRREGK
notes: Designed homodimer subunit, after TEV cleavage
B3: D_3_114_2 (designed binder)
chain: SGSGSSDEEFKWLATWAKMAITAAERAAGTDPELQEMVALIKKELEQAERTFRNGDKSEAWRQLVFVAIAAAAVLAVALAANAAGTDPELQEMVDRILKQLKEAIRTFQNGDQEEAETQLFFVLLAAAAVAVVALALIWAGTDPELQEMVKQILEELKQAIETFARGDKEKALTQLLFVLWAAHAVLWIAIAANTAGTDPRLQQQVKEILEKLKEAIETFQKGDEEQAFRQLAEVLAEAVLVALRAMKTN
notes: as for B2
B4: D_3_114_4 (designed binder)
chain: SGSGSSDEEFKFLATMAKMAITAAERAAGTDPELQEMVALIKKELEQAERTFRNGDKSEAQRQLWFVWVAALAVAAVALAANAAGTDPELQEMVDRILKQLKEAIRTFQNGDQEEAETQLRFVLMAAAAVAVVALARLWAGTDPELQEMVKQILEELKQAIETFARGDKEKALTQLLFVLWAAHAVLWIAIAANLAGTDPRLQQQVKEILEKLKEAIETFQKGDEEQAFRQLAEVLAEAVLVALRARKTN
notes: as for B2
B5: JD (designed binder)
chain: SGSSDEEYARMSAELAEEAAKEALEQAKREGDEDARRVAEELEKQAEEARRKKDFDLANLVLMAAIILLLALIILELAKKAGNEQMEASGLSLLATAALLAAAGGENSEDARKALEAALRLAERATEVLEKIAKKGETALEKAIAAGTLVMLIQIIIQIAELLSKLGDTEEAKKVLDIAIELIKRVTEILERIAKKADTDILAQAAAGHLIYLIQLLMQISILLRRLGNIDEAFKVLEEARELAERVRELLERIAKNSDK
notes: as for B2
B6: JId (designed binder)
chain: SGSSEELARESAEAAWRLAQAATRLVLAVIRGDLKEIAEALIELARAVQELARVAKEYGNDELAKTAAFLAAHVALLAIIVLIRAIKEGDDEVRELAKTAIKLASTAAKIVLDALPTAEEVRQITLLAKLAEEAADKKNEDSALAVGIAAAAVLLALLALEAAQKAGIEEAEKGARLLLKLAMDAARKKNPEEALAVLNAALDVSIALRLLQSAKRAGSEETRKLAEEMLRQALERARK
notes: as for B2
B7: JIe (designed binder)
chain: SGSSEELARESAEAAWRLAQAATRIMLAVIRGDLKEIAEALIELARAVQELARVAKEYGNDELAKTAAFLAAHVALLAIIVLIRAIKEGDDEVRELAKTAIKLASTAAKIVLDALPTAEEVRQITLLAKLAEEAADKKNEDSALAVGIAAMAVLIALLALEAAQKAGIEEAEKGARLLLKLAMDAARKKNPEEALAVFNAALDVSIALRLLQSAKRAGSEETRKLAEEMLRQALERARK
notes: as for B2
B8: JA (designed binder)
chain: SGSGSWEEEAADKAIEIAEKVFRLKKSGTSEDEIAEEVAREISEVIRTLKESGSSEEVIALALLMIILGVVMALIANGVSIREQLDISATILYEVAREQGNEEALEAIEEITRLAEEIKEEGGSILAAHILTMAGLLVAALPSEEAAEVAKEIAKAVKAAVEAEKDGKSDEAMLALIRLILAIMAALFNRSKYSLEMVRRIAKEAEQLAEDAREGK
notes: as for B2
B9: D_3_114_3 (designed binder)
chain: SGSGSSDELFKWLATEAKMAITAAERLAGTDPELQEMVALIKKELEQAERTFRNGDKSEAMRQLLFVLMAANAVAAVAAAANMAGTDPELQEMVDRILKQLKEAIRTFQNGDQEEAMTQLAFVLLAAAAVFVVAWALILAGTDPELQEMVKQILEELKQAIETFARGDKEKALTQLLFVLWAAHAVAWIALAALLAGTDPRLLQQVKEILEKLKEAIETFQKGDEEQAFRQLAEVLAEAILVAIRAAKTN
notes: as for B2
B10: JE (designed binder)
chain: SGSGSSDELAALFLIISAKSQAWQAQSAAERTGDPRVRELARELKRLAQEAAEEVKRDPSSSEVNKNLQLISMAIALAVLALQLARKAGDEEARDIAREAVEVAVRAAQLILEGRDEQRAQTLFLIAHALLMAVMAARLGNSEVAELAVKVLRLAKELEKLLPSEIALFVVLMIALAALSAAMAASGGQEDYARDALRRLEEAIREAEENRSKESLEKVIEEAIEAMLQANRAQTGG
notes: as for B2
B11: D_3_114_5 (designed binder)
chain: SGSGSSDFEFKMLATWAKMAITAAERAAGTDPELQEMVALIKKELEQAERTFRNGDKSEAMRQLEFVLTAANAVLAVALAANMAGTDPELQEMVDRILKQLKEAIRTFQNGDQEEAEDQLLFVLAAATAVAVVAWAKILAGTDPELQEMVKQILEELKQAIETWARGDKEKAATQLLFVMWAAHAVAAIALAANVAGTDPRLQQQVKEILEKLKEAIETFQKGDEEQAFRQLAEVLAEAMLVAIRALLTN
notes: as for B2
B12: JC (designed binder)
chain: SGSTEKLKKVLERVRELAERAKESTSPEEALIIALLVSSLAIAAVMLDPSEEASTAVKIAIKIAEEVAKRVSDSQLSASIALSIASLALVAAEAAGDEELSKLALRLAKLAAELAKDALRIAEERGNAIDAAIAVGIVVMVAAILLQLAKLLGSEEALKEALEVAEEAARLAKRVLELAERVGDPQVALAAVGHVQMVAILLAQIARESGSEEAKERAERVARESMELAERVLELMRREGKW
notes: as for B2

biological target: not listed separately; assay: ZnPPaM binding titration monitored by UV/vis absorbance; details: absorption titration, P+L→PL; 150 mM NaCl, 10 mM Tris pH 8; read-out: dissociation constant KD1
Procedure: FIG. 9. SP2-ZnPPaM binding titration monitored by UV/vis absorbance. (a) UV/vis titration of ZnPPaM into a solution of 20 μM SP2 dimer ([…] of SP2 monomer) in 150 mM NaCl, and 10 mM Tris at pH 8. Samples were prepared separately with 0.25 to 4 equivalents (eq.) of ZnPPaM per SP2 protein dimer (2.0 eq. ZnPPaM would be a stoichiometric amount). The y-axis is the molar extinction coefficient, &, or OD divided by ZnPPaM concentration. ZnPPaM was added to protein samples from a DMSO stock solution. Samples were incubated overnight for 20 hours at 4° C. before measurement at room temperature. (b) The same data as in panel (a) zoomed in on the Qy region. Arrows indicate the direction & changes as a function of increasing ZnPPaM concentration. (c) Fitted spectra and (d) species concentration vs. molar ratio of ligand to protein from fitting of the absorbance spectra in panels (a) and (b). During fitting, only the P+L→PL and PL+L→PL2 reactions were considered, and ZnPPaM aggregation was disregarded. (P represents SP2 dimer protein and L represents ZnPPaM ligand). Curve fitting gives dissociation constants (KDs) of 110 nM and 2.0 μM for KD1 and KD2, respectively. Fittings were performed with an algorithm that combines singular value decomposition and least squares regression, as implemented in ReactLab™ Equilibria. (e) Full spectra and (f) the Qy region of a second titration with SP2 dimer protein concentration held at 2.0 μM. At 2.0 μM protein, the intensities of the spectral features at 669 and 692 nm depend upon the molar ratio of protein to ZnPPaM in a manner similar to the 20 μM protein titration shown in panels (a) and (b).
(§1) At longer wavelengths in the UV/visible/near-infrared (UV/vis/NIR), CD spectra can serve as a convenient probe of excitonic interactions between Chls. […] When Chl dimers are arranged in chiral protein environments, however, excitonic interactions can produce delocalized transitions with chiral character, yielding CD signals that are stronger and conservative (i.e., composed of a bisignate doublet that integrates to zero). […] Curve fitting of the CD titrations yields SP2-ZnPPaM dissociation constants (KDs) of 300 nM for KD1 and 2.5 μM for KD2, and SP3-ZnPPaM KDs of 800 nM for KD1 and 1.0 μM for KD2 (data not shown). Due to the lower CD signal of the SP1-ZnPPaM complex, we instead used absorbance and fluorescence to measure the SP1-ZnPPaM interaction. Absorption titrations yielded curve fits with KD1 and KD2 values of 290 nM and 430 nM for SP1, 110 nM and 2.0 μM for SP2, and 350 nM and 940 nM for SP3, respectively (FIG. 9).
Protein-chlorophyll sample preparation: Zn pheophorbide a methyl ester (ZnPPaM) was purchased from Frontier Scientific, Inc. ZnPPaM stock solutions were prepared in dimethyl sulfoxide (DMSO) or methanol to concentrations between 200 μM and 1 mM. ZnPPaM concentrations were determined using mass measurements and by using the known absorptivity of Zn pheophytin a, which has a similar absorbance spectrum and an extinction coefficient €659 nm of 77,300 M^−1 cm^−1 in 80% acetone/20% deionized water (Jones et al. 1976). Ultraviolet/visible (UV/vis) absorbance spectra were collected using a V-750 spectrophotometer with a 1 nm bandwidth and 400 nm/min scanning speed. Protein-ZnPPaM complexes were prepared by slowly adding freshly-prepared ZnPPaM stock solution to protein solution in aqueous buffer at room temperature and incubating samples for several hours. Unbound ZnPPaM was removed by centrifugation to pellet precipitated ZnPPaM, sterile filtration using a 0.22 μm syringe filter, and/or running a PD-10 desalting column purification (Sephadex™ G-25 M resin, Cytiva Life Sciences).

Which Kd does the source give for B1 here?
Its Kd is 290 nM.

same assay, conditions: absorption titration, PL+L→PL2; read-out: dissociation constant KD2

With B1 as the molecule, how does the Kd read?
Its Kd is 430 nM.

biological target: not listed separately; assay: ZnPPaM fluorescence titration, 1:1 binding model; details: 1:1 binding model of protein monomer to ZnPPaM, approximates average of KD1 and KD2, read-out: KD estimate
Text: as §1

With B1 as the molecule, how does the Kd read?
Its Kd is 660 nM.

Biological target: the molecule itself
Assay: size-exclusion chromatography, self-association (homodimer)
Details: not given
Procedure: FIG. 7. Size exclusion chromatography (SEC) traces of purified SP apo-proteins. Proteins were injected as 0.5 mL aliquots onto a Superdex™ 200 Increase 10/300 GL column (Cytiva Life Sciences). The narrow, isolated peaks indicate that the samples contain monodisperse protein. Running buffer was 150 mM NaCl, 10 mM Tris at pH 8. Proteins were purified by Ni-NTA and one round of SEC prior to collecting the data shown.
Proteins were purified by Ni-NTA and size-exclusion chromatography (SEC) (FIG. 7). […] A slightly lower predicted radius of gyration (Rg) value compared to experimental SAXS data is likely due to a dense hydration shell around the highly charged SP proteins (Svergun et al. 1998; Kim et al. 2016). The far ultraviolet (UV) circular dichroism (CD) spectra of three SP proteins that expressed in high yield (≥140 mg/L) show the proteins are highly α-helical with and without the synthetic Chl a derivative, Zn pheophorbide a methyl ester (ZnPPaM). Thermal denaturation curves monitored by the CD signal at 222 nm indicate that all three proteins are highly thermostable in the apo- and holo-states (FIG. 2).

Does B2 bind?
Result: binds

Does B3 bind?
Result: binds

Does B4 bind?
Result: binds

Does B5 bind?
Result: binds

Does B6 bind?
Result: binds

Does B7 bind?
Result: binds

Does B8 bind?
Result: binds

Does B9 bind?
Result: binds

Does B10 bind?
Result: binds

Does B11 bind?
Result: binds

Does B12 bind?
Result: binds
